Legend:
physchem = type: physicochemical; conditions: pH 7.4
Description: Lipophilicity of the HPLC-purified radiopeptide analogs was determined through octanol/water partition coefficients, determined at pH 7.4 by measuring the distribution of the HPLC purified radiolabeled peptides in 1-octanol and PBS. Then, 50 μL HPLC purified ^99mTc-BN1/^99mTc-BN2/^99mTc-BN3/^99mTc-BN4/^99mTc-BNS with 100 μCi of radiolabeled compound in PBS was added to a to a centrifuge tube containing 1 mL n-octanol and 1 mL PBS (0.025 M, pH 7.4). The tube was vortexed at room temperature for 2 min and they are centrifuged at 5000 rpm for 5 min to ensure complete separation of layers. Further, 100 μL of each phase was transferred into a separate pre-weighed vial and measured in the well γ-counter. The ratio of octanol layer counts to aqueous layer counts was expressed as the distribution coefficient (D, the appropriate descriptor for ionizable compounds) and logD was used for determination of lipophilicity. Counts per unit weight of the sample were calculated, and logD value as calculated as follows:
log10D = log10 [(cpm in octanol – cpm in background) / (cpm in buffer – cpm in background)]

in vitro = in vitro ADME; conditions: rat
Description: An aliquot (100 μL) of ^99mTc-BN1/^99mTc-BN2/^99mTc-BN3/^99mTc-BN4/^99mTc-BNS was added to 1 mL of freshly collected rat serum in centrifuge tube. The mixture was then incubated at 37 °C for 1 h; the serum protein was precipitated by adding 1 mL trichloroacetic acid (10%, V/V). The supernatant and precipitate were separated by centrifugation at 3000 rpm for 5 min. Radioactivities of both the phases were measured separately. The above experimental procedure was repeated three times. The percentage of protein binding was determined as: Plasma protein binding % = (precipitate counts (CPM) / [precipitate counts (CPM) + plasma counts (CPM)]) × 100%.

[1] = tested on: MDA-MB-231 tumor-bearing mice; test: In vivo biodistribution; set-up: species or system mouse; conditions: for Tumor uptake: MDA-MB-231 tumor; for Tumor uptake / Blood uptake / Heart uptake / Intestine uptake / Kidney uptake / Liver uptake / Lung uptake / Muscle uptake / Pancreas uptake / Spleen uptake / Stomach uptake / Urine + urinary bladder uptake: mean ± SD, n = 3
Description: All animal experiments were done according to the CSIR-IICB Animal Ethics Committee’s rules and regulation. Forty-eight hours before tumor cell implantation, an immunosuppressive drug (cyclosporine-A) was given intraperitoneal (i.p) at a concentration of 30 mg/kg/day. After that, MDA-MB-231 cells (5 × 10^6) 0.2 mL were implanted subcutaneously into the left flanks of the hind leg of BALB/c mice. Thereafter, the same dose of cyclosporine was given i.p. daily up to 2 weeks. Two weeks after inoculation of the tumor cells, when tumors reached ~ 0.5 cm in mean diameter, the tumor-bearing mice were used for biodistribution and imaging studies. Animals were monitored daily and their weights were recorded. Control group of mice received only 0.9 wt% saline. After cell implantation, the growth rate of the breast tumor followed a satisfactory pattern of spheroid shape and tumors are palpable within 2 to 4 weeks. MDA-MB-231 cell implanted mice tumor models were used for biodistribution and planar imaging studies of these radiolabeled new bombesin analogs.
In tissue biodistribution studies, tumor-bearing animals were divided into four groups and well hydrated for 1 h by intraperitoneal administration of saline (0.9%, 2 mL). Three animals per groups were used for biodistribution studies. After that, the radiolabeled new bombesin analogs (^99mTc-BN) were injected intravenously in each animal of each group consequently through the tail vein [24–27]. After 5, 30, 60, and 120 min intravenous administrations of radiolabeled analogs, the animals were sacrificed; blood, heart, lung, liver, kidney, stomach, intestine, spleen, pancreas, brain, muscle, and tumor were excised, weighed, and counted for radioactivity. The organ uptake was calculated as a percentage of the injected activity per gram of wet tissue (%IA/g). In order to evaluate whether binding of bombesin analogs to MDA-MB-231 cells in vivo is specific; blocking studies with ^99mTc-labeled bombesin analogs in tumor-bearing mice were carried out. Groups of three animals were injected 0.03 nmol of ^99mTc-labeled BN analogs (2 MBq) with 25 nmol of non-radiolabeled BN peptide. After 60 min and 120 min, mice were sacrificed and the organs were collected. Each organ was weighed and counted in a gamma counter along with activity standard and percentage of injected activity per gram (%IA/g) of tissue was calculated for each type of tissues. Counts were corrected for background radiation and physical decay of the radioactivity. The uptake was expressed in the percentage of injected activity per gram of each organ (%IA/g). Data were analyzed statistically by the t test, with the level of significance set at P < 0.05.

[2] = 60 min p.i., blocked with excess non-radiolabeled BN peptide

^99mTc-BN(7-14)NH2 [99mTc-BNS, reference compound]
logD (physchem): − 0.42 ± 0.10 | Percentage of plasma protein binding (in vitro): 54% | Tumor uptake ([1]; 5 min p.i., i.v.): 0.45 ± 0.12 %IA/g | Blood uptake ([1]; 5 min p.i., i.v.): 1.25 ± 0.05 %IA/g | Heart uptake ([1]; 5 min p.i., i.v.): 1.80 ± 0.02 %IA/g | Intestine uptake ([1]; 5 min p.i., i.v.): 0.84 ± 0.03 %IA/g | Kidney uptake ([1]; 5 min p.i., i.v.): 2.86 ± 0.10 %IA/g | Liver uptake ([1]; 5 min p.i., i.v.): 1.60 ± 0.07 %IA/g | Lung uptake ([1]; 5 min p.i., i.v.): 1.35 ± 0.04 %IA/g | Muscle uptake ([1]; 5 min p.i., i.v.): 0.16 ± 0.03 %IA/g | Pancreas uptake ([1]; 5 min p.i., i.v.): 0.88 ± 0.01 %IA/g | Spleen uptake ([1]; 5 min p.i., i.v.): 0.22 ± 0.04 %IA/g | Stomach uptake ([1]; 5 min p.i., i.v.): 0.76 ± 0.03 %IA/g | Urine + urinary bladder uptake ([1]; 5 min p.i., i.v.): 0.56 ± 0.02 %IA/g | Tumor uptake ([1]; 30 min p.i., i.v.): 0.95 ± 0.05 %IA/g | Blood uptake ([1]; 30 min p.i., i.v.): 1.02 ± 0.03 %IA/g | Heart uptake ([1]; 30 min p.i., i.v.): 1.10 ± 0.01 %IA/g | Intestine uptake ([1]; 30 min p.i., i.v.): 0.52 ± 0.05 %IA/g | Kidney uptake ([1]; 30 min p.i., i.v.): 3.12 ± 0.20 %IA/g | Liver uptake ([1]; 30 min p.i., i.v.): 0.85 ± 0.06 %IA/g | Lung uptake ([1]; 30 min p.i., i.v.): 0.84 ± 0.11 %IA/g | Muscle uptake ([1]; 30 min p.i., i.v.): 0.26 ± 0.02 %IA/g | Pancreas uptake ([1]; 30 min p.i., i.v.): 1.73 ± 0.10 %IA/g | Spleen uptake ([1]; 30 min p.i., i.v.): 0.18 ± 0.03 %IA/g | Stomach uptake ([1]; 30 min p.i., i.v.): 0.69 ± 0.05 %IA/g | Urine + urinary bladder uptake ([1]; 30 min p.i., i.v.): 1.92 ± 0.07 %IA/g | tumor/kidney ratio ([1]; 60 min p.i.): 0.26 | Tumor uptake [1, 2]: 0.68 ± 0.20 %IA/g | Blood uptake [1, 2]: 0.84 ± 0.01 %IA/g | Heart uptake [1, 2]: 0.77 ± 0.11 %IA/g | Intestine uptake [1, 2]: 0.36 ± 0.02 %IA/g | Kidney uptake [1, 2]: 2.88 ± 0.12 %IA/g | Liver uptake [1, 2]: 0.42 ± 0.04 %IA/g | Lung uptake [1, 2]: 0.70 ± 0.05 %IA/g | Muscle uptake [1, 2]: 0.17 ± 0.03 %IA/g | Pancreas uptake [1, 2]: 0.90 ± 0.02 %IA/g | Spleen uptake [1, 2]: 0.10 ± 0.03 %IA/g | Stomach uptake [1, 2]: 0.45 ± 0.01 %IA/g | Urine + urinary bladder uptake [1, 2]: 2.58 ± 0.18 %IA/g | Tumor uptake ([1]; 60 min p.i., i.v.): 0.75 ± 0.04 %IA/g | Blood uptake ([1]; 60 min p.i., i.v.): 0.82 ± 0.01 %IA/g | Heart uptake ([1]; 60 min p.i., i.v.): 0.79 ± 0.12 %IA/g | Intestine uptake ([1]; 60 min p.i., i.v.): 0.31 ± 0.02 %IA/g | Kidney uptake ([1]; 60 min p.i., i.v.): 2.82 ± 0.16 %IA/g | Liver uptake ([1]; 60 min p.i., i.v.): 0.40 ± 0.05 %IA/g | Lung uptake ([1]; 60 min p.i., i.v.): 0.68 ± 0.03 %IA/g | Muscle uptake ([1]; 60 min p.i., i.v.): 0.18 ± 0.04 %IA/g | Pancreas uptake ([1]; 60 min p.i., i.v.): 1.14 ± 0.05 %IA/g | Spleen uptake ([1]; 60 min p.i., i.v.): 0.11 ± 0.02 %IA/g | Stomach uptake ([1]; 60 min p.i., i.v.): 0.46 ± 0.04 %IA/g | Urine + urinary bladder uptake ([1]; 60 min p.i., i.v.): 2.54 ± 0.22 %IA/g | Tumor uptake ([1]; 120 min p.i., i.v.): 0.58 ± 0.01 %IA/g | Blood uptake ([1]; 120 min p.i., i.v.): 0.54 ± 0.01 %IA/g | Heart uptake ([1]; 120 min p.i., i.v.): 0.50 ± 0.01 %IA/g | Intestine uptake ([1]; 120 min p.i., i.v.): 0.22 ± 0.01 %IA/g | Kidney uptake ([1]; 120 min p.i., i.v.): 2.40 ± 0.12 %IA/g | Liver uptake ([1]; 120 min p.i., i.v.): 0.22 ± 0.02 %IA/g | Lung uptake ([1]; 120 min p.i., i.v.): 0.33 ± 0.02 %IA/g | Muscle uptake ([1]; 120 min p.i., i.v.): 0.11 ± 0.02 %IA/g | Pancreas uptake ([1]; 120 min p.i., i.v.): 0.95 ± 0.04 %IA/g | Spleen uptake ([1]; 120 min p.i., i.v.): 0.06 ± 0.11 %IA/g | Stomach uptake ([1]; 120 min p.i., i.v.): 0.12 ± 0.02 %IA/g | Urine + urinary bladder uptake ([1]; 120 min p.i., i.v.): 2.85 ± 0.03 %IA/g

Source: PMC6423188, “HYNIC and DOMA conjugated radiolabeled bombesin analogs as receptor-targeted probes for scintigraphic detection of breast tumor” (EJNMMI Research, 2019)
